From FireProtDB (doi:10.1021/bi972395d)
“And” between values parts separate entries of the source, which are not always exact repeats. Equal entries are not always repeated.

B1: Superoxide dismutase [Mn], mitochondrial, P04179 (parent)
chain: MLSRAVCGTSRQLAPVLGYLGSRQKHSLPDLPYDYGALEPHINAQIMQLHHSKHHAAYVNNLNVTEEKYQEALAKGDVTAQIALQPALKFNGGGHINHSIFWTNLSPNGGGEPKGELLEAIKRDFGSFDKFKEKLTAASVGVQGSGWGWLGFNKERGHLQIAACPNQDPLQGTTGLIPLLGIDVWEHAYYLQYKNVRPDYLKAIWNVINWENVTERYMACKK

Variants of: B1
Conditions: Homo sapiens; pH 7.8; 70 °C; Thermal; DSC; potassium phosphate 2 mM; transition: 2; reversible: Yes; structure 1N0J; whole UniProt chain shown

| Variant | ddG of mutation (higher = less stable) [kcal/mol] |
| --- | --- |
| Q167N | -2.79 |

Same assay, conditions: Homo sapiens; pH 7.8; 88.9 °C; Thermal; DSC; potassium phosphate 2 mM; transition: 2; reversible: Yes; structure 1N0J; whole UniProt chain shown

| Variant | ddG of mutation (higher = less stable) [kcal/mol] |
| --- | --- |
| Q167N | -0.06 |

Same assay, conditions: Homo sapiens; pH 7.8; Thermal; DSC; potassium phosphate 2 mM; transition: 2; reversible: Yes; structure 1N0J; whole UniProt chain shown

| Variant | unfolding enthalpy (calorimetric) |
| --- | --- |
| Q167N | 100 kcal/mol and 78.3 kcal/mol |
